Patent US12338277 (ROCKEFELLER UNIVERSITY, dated 2025)
Where a chain is given by its changes, count along the chain named. Where two headings read alike, the source gives them in different places.

B1: 10-410 (antibody, V domains shown)
VH: QVQLQESGPGLVKPPETLSLTCSVSGASVNDAYWSWIRQSPGKRPEWVGYVHHSGDTNYNPSLKRRVTFSLDTAKNEVSLKLVALTAADSAVYFCARALHGKRIYGIVALGELFTYFYMDVWGKGTTVTVSS
VL: SFVSVAPGQTARITCGEESLGSRSVIWYQQRPGQAPSLIIYNNNDRPSGIPERFSGSPGSTFGTTATLTITSVEAGDEADYYCHIWDSRRPTNWVFGEGTTLTVL
B2: 10-1074 (antibody, V domains shown)
VH: QVQLQESGPGLVKPSETLSVTCSVSGDSMNNYYWTWIRQSPGKGLEWIGYISDRESATYNPSLNSRVVISRDTSKNQLSLKLNSVTPADTAVYYCATARRGQRIYGVVSFGEFFYYYSMDVWGKGTTVTVSS
VL: SYVRPLSVALGETARISCGRQALGSRAVQWYQHRPGQAPILLIYNNQDRPSGIPERFSGTPDINFGTRATLTISGVEAGDEADYYCHMWDSRSGFSWSFGGATRLTVL
B3: 10-1341 (antibody, V domains shown)
VH: B2 VH with K75T, K124R
VL: B2 VL
B4: 10-1074GM (antibody, V domains shown)
VH: B2 VH with Y32S, D53K, R54S, T58N, R100H, Y115T
VL: B2 VL
notes: also called 10-1074 glycomutant
B5: 10-847 (antibody, V domains shown)
VH: B2 VH with E55A
VL: B2 VL with R15S

Assays:
YU-2 gp120 [1] = biological target: T1, YU-2 gp120 (HIV-1 (strain YU-2), UniProt P35961 32-498); assay: SPR, IgG over immobilised YU-2 gp120, 1:1 fit, apparent constant
T1 construct: domain: gp120; also called gp120WT; intact YU-2 gp120

gp120NNT301-303AAA = assay: ELISA, coated antigen, OD405 vs [IgG] (M)
gp120GD324-5AA = assay: ELISA, coated antigen, OD405 vs [IgG] (M)
YU-2 gp120 [2] = biological target: T1, YU-2 gp120; assay: ELISA, coated antigen, OD405 vs [IgG] (M)
YU-2 gp120 [3] = biological target: T1, YU-2 gp120; assay: ELISA, coated antigen, OD405 vs [IgG] (M); remark: listed apart in the source
YU-2 gp120 [4] = biological target: T1, YU-2 gp120; assay: ELISA, coated antigen, OD405 vs [IgG] (M); remark: listed apart in the source
YU-2 gp120 [5] = biological target: T1, YU-2 gp120; assay: ELISA, coated antigen, OD405 vs [IgG] (M); remark: listed apart in the source
YU-2 gp120 [6] = biological target: T1, YU-2 gp120; assay: ELISA, coated antigen, OD405 vs [IgG] (M); remark: listed apart in the source
YU-2 gp120 [7] = biological target: T1, YU-2 gp120; assay: ELISA, coated antigen, OD405 vs [IgG] (M); remark: listed apart in the source
[8] = biological target: HIV-1 CNE19 envelope on pseudovirus (HIV-1 (strain CNE19)); assay: cell-based or functional assay
[9] = biological target: HIV-1 62357_14_D3_4589 envelope on pseudovirus (HIV-1 (strain 62357_14_D3_4589)); assay: cell-based or functional assay
YU-2 gp120 [10] = biological target: T1, YU-2 gp120; assay: SPR, apparent KD on gp120, bar graph

Binder | Ka (YU-2 gp120 [1]) | Kd (YU-2 gp120 [1]) | koff (YU-2 gp120 [1]) | binding result (gp120NNT301-303AAA) | binding result (gp120GD324-5AA) | EC50 (read off the curve) (YU-2 gp120 [2]) | EC50 (read off the curve) (YU-2 gp120 [3]) | EC50 (read off the curve) (gp120NNT301-303AAA) | EC50 (read off the curve) (YU-2 gp120 [4]) | EC50 (read off the curve) (YU-2 gp120 [5]) | EC50 (read off the curve) (YU-2 gp120 [6]) | EC50 (read off the curve) (YU-2 gp120 [7]) | IC50, TZM-bl neutralization [8] | IC50, TZM-bl neutralization [9] | fold difference of KD, wildtype vs glycomutant (YU-2 gp120 [10])
B1 | 2.1e+07 M⁻¹ | 47000 pM | 0.0017 s⁻¹ | binds | binds | – | – | – | – | – | – | – | – | – | –
B2 | 1.1e+08 M⁻¹ | 9500 pM | 0.00019 s⁻¹ | – | binds | ~700 pM | ~500 pM | ~100 pM | ~100 pM | ~300 pM | ~300 pM | ~500 pM | – | – | –
B3 | 1.2e+08 M⁻¹ | 8200 pM | 0.00016 s⁻¹ | – | binds | ~600 pM | ~500 pM | ~90 pM | ~90 pM | ~500 pM | ~400 pM | ~200 pM | – | – | –
B4 | – | – | – | – | – | – | – | – | – | – | – | – | 0.19 µg/mL | 40.8 µg/mL | 1.8 fold
B5 | 1.1e+08 M⁻¹ | 8900 pM | 0.00018 s⁻¹ | – | binds | ~400 pM | ~300 pM | ~100 pM | ~100 pM | ~300 pM | ~200 pM | ~300 pM | – | – | –
